Data on two molecules can be found in PMC10415273.

Assay [1] addresses T1, endogenous mouse IRF3 (mouse (endogenous in peritoneal macrophages)), P70671.
T1 chain: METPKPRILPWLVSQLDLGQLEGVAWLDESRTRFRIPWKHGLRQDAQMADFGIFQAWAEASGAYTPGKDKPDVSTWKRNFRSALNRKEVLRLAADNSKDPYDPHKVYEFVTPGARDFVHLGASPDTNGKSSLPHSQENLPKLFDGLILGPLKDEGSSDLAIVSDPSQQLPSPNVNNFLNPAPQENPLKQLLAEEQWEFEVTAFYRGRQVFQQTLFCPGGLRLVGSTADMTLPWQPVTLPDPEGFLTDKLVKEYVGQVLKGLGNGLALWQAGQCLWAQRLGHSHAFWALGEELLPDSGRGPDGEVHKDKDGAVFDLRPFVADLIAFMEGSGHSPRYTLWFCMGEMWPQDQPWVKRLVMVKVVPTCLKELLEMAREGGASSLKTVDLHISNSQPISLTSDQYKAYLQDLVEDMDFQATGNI
As to the kind of experiment: native gel or EMSA; S5 fractions of stimulated cells on 9% native PAGE (0.4% Doc-Na in running buffer, 4 °C); immunoblot of IRF3. Conditions: remark: other sources report otherwise. (In general: A gel shift assay detects complexes by their altered migration in electrophoresis.)

Assay [2] deals with T2, endogenous IRF3 (human (endogenous in HEK293)), Q14653.
T2 chain: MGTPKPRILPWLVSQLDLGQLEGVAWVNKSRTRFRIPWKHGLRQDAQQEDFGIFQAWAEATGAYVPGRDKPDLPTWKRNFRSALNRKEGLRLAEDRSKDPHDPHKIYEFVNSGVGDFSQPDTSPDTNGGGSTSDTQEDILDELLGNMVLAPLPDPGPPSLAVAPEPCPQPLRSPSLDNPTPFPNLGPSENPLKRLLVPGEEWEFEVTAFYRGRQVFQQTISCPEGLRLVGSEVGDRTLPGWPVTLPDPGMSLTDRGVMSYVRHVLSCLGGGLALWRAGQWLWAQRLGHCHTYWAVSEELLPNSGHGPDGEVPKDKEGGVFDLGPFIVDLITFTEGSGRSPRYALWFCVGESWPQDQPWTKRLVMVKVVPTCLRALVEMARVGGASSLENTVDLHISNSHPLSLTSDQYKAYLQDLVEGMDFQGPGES
Described as above. The conditions noted are these: remark: other sources report otherwise.

B1: endogenous mouse IRF3, P70671 1-419 (natural protein)
chain: METPKPRILPWLVSQLDLGQLEGVAWLDESRTRFRIPWKHGLRQDAQMADFGIFQAWAEASGAYTPGKDKPDVSTWKRNFRSALNRKEVLRLAADNSKDPYDPHKVYEFVTPGARDFVHLGASPDTNGKSSLPHSQENLPKLFDGLILGPLKDEGSSDLAIVSDPSQQLPSPNVNNFLNPAPQENPLKQLLAEEQWEFEVTAFYRGRQVFQQTLFCPGGLRLVGSTADMTLPWQPVTLPDPEGFLTDKLVKEYVGQVLKGLGNGLALWQAGQCLWAQRLGHSHAFWALGEELLPDSGRGPDGEVHKDKDGAVFDLRPFVADLIAFMEGSGHSPRYTLWFCMGEMWPQDQPWVKRLVMVKVVPTCLKELLEMAREGGASSLKTVDLHISNSQPISLTSDQYKAYLQDLVEDMDFQATGNI
Consider B1, for which the stoichiometry N (usually the number of molecules, sites or subunits per partner or assembly) in assay [1] was 2.

B2: endogenous IRF3, Q14653 1-427 (natural protein)
chain: MGTPKPRILPWLVSQLDLGQLEGVAWVNKSRTRFRIPWKHGLRQDAQQEDFGIFQAWAEATGAYVPGRDKPDLPTWKRNFRSALNRKEGLRLAEDRSKDPHDPHKIYEFVNSGVGDFSQPDTSPDTNGGGSTSDTQEDILDELLGNMVLAPLPDPGPPSLAVAPEPCPQPLRSPSLDNPTPFPNLGPSENPLKRLLVPGEEWEFEVTAFYRGRQVFQQTISCPEGLRLVGSEVGDRTLPGWPVTLPDPGMSLTDRGVMSYVRHVLSCLGGGLALWRAGQWLWAQRLGHCHTYWAVSEELLPNSGHGPDGEVPKDKEGGVFDLGPFIVDLITFTEGSGRSPRYALWFCVGESWPQDQPWTKRLVMVKVVPTCLRALVEMARVGGASSLENTVDLHISNSHPLSLTSDQYKAYLQDLVEGMDFQGPGES
In the case of B2, the stoichiometry N in assay [2] was determined as 2.
